The target of this assay is HsiB1C1 complex (P. aeruginosa PAO1). Description: negative stain electron microscopy.

Several values for one entry are separate records, joined by “and”; a condition that tells them apart may be missing. Equal entries are not always repeated.

As usually defined, the stoichiometry N is the number of molecules, sites or subunits per partner or assembly. On to HsiB1C1 complex, for which the stoichiometry N was 12 and 13.

These data come from paper PMC3597794.
